Source: paper PMC2897912 (Journal of immunology (Baltimore, Md. : 1950), 2010)

Biological target: T1, IL-17RC-FL (murine IL-17RC, full length, unspliced, C-terminal Myc tag) (mouse, UniProt Q8K4C2 22-698)
T1 sequence (looked up): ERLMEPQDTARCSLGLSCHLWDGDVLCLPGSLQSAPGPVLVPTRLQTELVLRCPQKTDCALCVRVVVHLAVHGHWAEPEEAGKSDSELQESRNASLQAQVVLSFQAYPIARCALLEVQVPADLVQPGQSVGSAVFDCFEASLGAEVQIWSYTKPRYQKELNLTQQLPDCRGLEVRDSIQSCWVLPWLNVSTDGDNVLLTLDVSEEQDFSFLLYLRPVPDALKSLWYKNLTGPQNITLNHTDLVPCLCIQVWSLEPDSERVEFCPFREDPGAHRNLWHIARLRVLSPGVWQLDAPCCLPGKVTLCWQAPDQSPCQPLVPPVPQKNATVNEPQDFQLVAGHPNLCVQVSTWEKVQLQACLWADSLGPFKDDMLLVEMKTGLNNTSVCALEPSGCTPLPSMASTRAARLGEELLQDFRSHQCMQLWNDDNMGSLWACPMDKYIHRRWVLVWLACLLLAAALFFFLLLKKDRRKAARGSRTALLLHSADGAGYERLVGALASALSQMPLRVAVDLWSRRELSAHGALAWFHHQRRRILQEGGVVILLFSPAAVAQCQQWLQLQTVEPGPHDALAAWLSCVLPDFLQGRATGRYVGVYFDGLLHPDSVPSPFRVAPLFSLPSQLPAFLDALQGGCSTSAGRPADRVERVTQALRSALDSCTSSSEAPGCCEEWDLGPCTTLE
Assay: co-IP

fold induction of co-precipitated phospho-Act1 over the 0 time point: ~6 fold
B1: CFP-tagged murine Act1, larger phosphorylated isoform (phospho-Act1) (natural protein, mouse, UniProt Q8N7N6 1-555, looked up)
chain: MNRSIPVEVDESEPFPSQLLKPIPEYSPEEELEPPAPNTRNMAPSSLSVLQCPPLKLANHQPVSQQVTCLRAKVLEEGEASFFRRHPELGKDISSCSSGASEPESELGALPPEHRFTLTEKRNRWLGSQLSAASPDTGHESDKSDPSLPNALADSFSGGQEMMPRPRPRPGPHRHRAAPDVPTIDTGYDSQPQDVLGIRQLERPLPLTSSCYLQDLPGPLRSRELPPQFELERYPMNAQLLPPHPSPQAPWNCQYYCPGGPYHHQVPHGHGYPPAAAYQQVLQPALPGQVLPGARARGPRPVQKVILNDSSPQDQEERPAQRDFSFPRLPRDQLYRPPSNGVEAPEESLDLPAELRPHGPQAPSLAAVPRPPSNPLARGTLRTSNLPEELRKVFITYSMDTAMEVVKFVNFLLVNGFQTAIDIFEDRIRGIDIIKWMERYLRDKTVMIIVAISPKYKQDVEGAESQLDEDEHGLHTKYIHRMMQIEFISQGSMNFRFIPVLFPNAKKEHVPTWLQNTHVYSWPKNKKNILLRLLREEEYVAPPRGPLPTLQVVPL
modifications: phosphorylated (removed by shrimp alkaline phosphatase; sites not stated)
